Assay results: patent US20110020361A1 (GOVERNMENT OF THE UNITED STATES OF AMERICA AS REPRESENTED …, published 2011)

Target: T1, recombinant human mesothelin (amino acids 296-600 of SEQ ID NO: 4) (human, UniProt Q13421 296-600)
T1 construct: Secreted from SF9 insect cells (baculovirus vector pAcGP67) and purified by nickel column and gel filtration; It was coated on ELISA plates and, biotin-labelled, used for panning; also called recombinant mesothelin; purified mesothelin
Assay: ELISA, recombinant mesothelin coated on plate, anti-FLAG-HRP detection
Protocol: Antigen (mesothelin) diluted in PBS was coated on narrow-well 96-well plates at 50 ng/well overnight at 4° C. Wells were blocked with 100 μl of 4% milk/PBS (MPBS) for 1 hour at 37° C. […] Fifty μl of diluted Fab was added to duplicate wells. For competition ELISA, designated concentrations of competing IgG were included in all Fab solutions. After 2 hours of incubation at 37° C., the wells were washed with PBST (PBS+0.05% Tween 20) 4 times. […] Wells were washed again with PBST. Substrate ABTS was added (50 μl/well), and the reaction was read at A405 nm. For ELISA with IgG, a goat anti-human Fc IgG conjugated with HRP was used at 1:1000.

B1: Fab m912 (Fab, V domains shown)
VH: QVQLQESGPGLVKPSETLSLTCTVSGGSVSSGSYYWSWIRQPPGKGLEWIGYIYYSGSTNYNPSLKSRVTISVDTSKNQFSLKLSSVTAADTAVYYCAREGKNGAFDIWGQGTMVTVSS
VL: not shown
notes: Human Fab from a naive Fab phage library, expressed in E. coli HB2151; also called clone m912; mesothelin-specific antibody m912
- EC50: 20 nM
